Consider 2 variants from IntAct's records for PubMed 25988182.

B1: Regulator of RpoS (Escherichia coli (strain K12)), P0AEV1 (parent)
chain: MTQPLVGKQILIVEDEQVFRSLLDSWFSSLGATTVLAADGVDALELLGGFTPDLMICDIAMPRMNGLKLLEHIRNRGDQTPVLVISATENMADIAKALRLGVEDVLLKPVKDLNRLREMVFACLYPSMFNSRVEEEERLFRDWDAMVDNPAAAAKLLQELQPPVQQVISHCRVNYRQLVAADKPGLVLDIAALSENDLAFYCLDVTRAGHNGVLAALLLRALFNGLLQEQLAHQNQRLPELGALLKQVNHLLRQANLPGQFPLLVGYYHRELKNLILVSAGLNATLNTGEHQVQISNGVPLGTLGNAYLNQLSQRCDAWQCQIWGTGGRLRLMLSAE
partner: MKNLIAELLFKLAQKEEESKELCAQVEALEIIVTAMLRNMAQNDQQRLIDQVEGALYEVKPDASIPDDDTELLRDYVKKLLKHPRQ

The test covers variants of B1. The conditions noted are these: with irap_ecoli iraP.
Consider MTQPLVGKQILIVEDEQVFRSLLDSWFSSLGATTVLAADGVDALELLGGFTPDLMICAIAMPRMNGLKLLEHIRNRGDQTPVLVISATENMADIAKALRLGVEDVLLKPVKDLNRLREMVFACLYPSMFNSRVEEEERLFRDWDAMVDNPAAAAKLLQELQPPVQQVISHCRVNYRQLVAADKPGLVLDIAALSENDLAFYCLDVTRAGHNGVLAALLLRALFNGLLQEQLAHQNQRLPELGALLKQVNHLLRQANLPGQFPLLVGYYHRELKNLILVSAGLNATLNTGEHQVQISNGVPLGTLGNAYLNQLSQRCDAWQCQIWGTGGRLRLMLSAE [D58A], for which the “effect of a mutation on the interaction” value is on record as “decreasing interaction strength”.

On to MTQPLVGKQILIVEDEQVFRSLLDSWFSSLGATTVLAADGVDALELLGGFTPDLMICPIAMPRMNGLKLLEHIRNRGDQTPVLVISATENMADIAKALRLGVEDVLLKPVKDLNRLREMVFACLYPSMFNSRVEEEERLFRDWDAMVDNPAAAAKLLQELQPPVQQVISHCRVNYRQLVAADKPGLVLDIAALSENDLAFYCLDVTRAGHNGVLAALLLRALFNGLLQEQLAHQNQRLPELGALLKQVNHLLRQANLPGQFPLLVGYYHRELKNLILVSAGLNATLNTGEHQVQISNGVPLGTLGNAYLNQLSQRCDAWQCQIWGTGGRLRLMLSAE [D58P], for which the “effect of a mutation on the interaction” value is “disrupting interaction strength”.
